Assay results: US20230256092A1 (SHIONOGI, published 2023)
Where two headings read alike, the source gives them in different places.

T1: N-ter hCCR4-hCCR8 (human)
T1 construct: chimera on Expi293 cells; also called human CCR8 with the N-terminal region substituted with that of human CCR4
T1 chain: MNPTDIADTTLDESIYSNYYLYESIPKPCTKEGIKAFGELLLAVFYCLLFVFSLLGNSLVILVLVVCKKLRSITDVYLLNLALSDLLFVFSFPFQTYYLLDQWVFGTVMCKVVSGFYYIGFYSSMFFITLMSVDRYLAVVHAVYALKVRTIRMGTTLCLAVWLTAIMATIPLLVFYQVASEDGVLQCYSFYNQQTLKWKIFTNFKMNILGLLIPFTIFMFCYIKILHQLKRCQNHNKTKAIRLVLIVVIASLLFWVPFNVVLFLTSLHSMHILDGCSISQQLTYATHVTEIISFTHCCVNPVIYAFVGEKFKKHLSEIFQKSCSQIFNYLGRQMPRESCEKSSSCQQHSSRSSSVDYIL

T2: mouse CCR8 (mouse, UniProt P56484 1-353)
T2 construct: full length, on Expi293 cells; also called mCCR8
T2 sequence: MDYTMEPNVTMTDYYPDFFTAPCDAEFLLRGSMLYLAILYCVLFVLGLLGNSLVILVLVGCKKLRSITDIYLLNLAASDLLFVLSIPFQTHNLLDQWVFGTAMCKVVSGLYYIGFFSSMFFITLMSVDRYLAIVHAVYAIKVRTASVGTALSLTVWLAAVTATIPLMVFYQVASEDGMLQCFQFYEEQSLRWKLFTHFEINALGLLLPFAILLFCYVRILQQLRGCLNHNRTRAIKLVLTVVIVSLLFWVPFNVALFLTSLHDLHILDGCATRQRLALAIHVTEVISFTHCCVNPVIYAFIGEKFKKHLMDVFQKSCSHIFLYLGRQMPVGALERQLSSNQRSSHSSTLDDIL

T3: human CCR4 (human, UniProt P51679 1-360)
T3 construct: full length, on Expi293 cells; also called hCCR4
T3 sequence: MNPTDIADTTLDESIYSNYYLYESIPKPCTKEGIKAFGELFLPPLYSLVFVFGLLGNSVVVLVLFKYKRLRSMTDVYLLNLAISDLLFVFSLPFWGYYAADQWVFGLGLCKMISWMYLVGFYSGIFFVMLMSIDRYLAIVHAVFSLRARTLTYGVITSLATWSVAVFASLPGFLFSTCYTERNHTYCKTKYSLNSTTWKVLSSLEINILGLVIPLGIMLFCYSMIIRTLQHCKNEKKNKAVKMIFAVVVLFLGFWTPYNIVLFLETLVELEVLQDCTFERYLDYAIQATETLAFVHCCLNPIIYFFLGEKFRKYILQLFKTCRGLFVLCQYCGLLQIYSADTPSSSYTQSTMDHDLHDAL


Assays:
N-ter hCCR4-hCCR8 = target: T1, N-ter hCCR4-hCCR8; assay: flow cytometry on Expi293 transfectants
mouse CCR8 = target: T2, mouse CCR8; assay: flow cytometry on Expi293 transfectants
human CCR4 = target: T3, human CCR4; assay: flow cytometry on Expi293 transfectants
hCCR8 (Y17A) = target: T4, hCCR8 (Y17A) (human, UniProt P51685 1-355); assay: flow cytometry on Expi293 transfectants
T4 construct: also called mutant in which Y at position 17 of human CCR8 is substituted for A

human CCR8 [1] = target: T5, human CCR8 (human, UniProt P51685 1-355); assay: cell-based or functional assay
loop3 hCCR4-hCCR8 = target: T6, loop3 hCCR4-hCCR8 (human, UniProt P51685 1-355); assay: FCM, Expi293 transfectants; blank cell = same binding activity as wild-type hCCR8
T6 construct: chimera on Expi293 cells; hCCR8 264-280 replaced

loop1 hCCR4-hCCR8 [2] = target: T7, loop1 hCCR4-hCCR8 (human, UniProt P51685 1-355); assay: FCM, Expi293 transfectants; Δ = significantly reduced binding activity vs wild-type hCCR8
T7 construct: chimera on Expi293 cells; hCCR8 94-107 replaced; also called loop1-human CCR4-substituted human CCR8

loop2 hCCR4-hCCR8 = target: T8, loop2 hCCR4-hCCR8 (human, UniProt P51685 1-355); assay: as above
T8 construct: chimera on Expi293 cells; hCCR8 172-202 replaced; also called loop2-human CCR4-substituted human CCR8

hCCR8 (K35A) = hCCR8 (K35A) (human, UniProt P51685 1-355); assay: flow cytometry on Expi293 transfectants
human CCR8 [3] = target: T5, human CCR8; assay: cell-based or functional assay; remark: listed apart in the source
human CCR8 [4] = target: T5, human CCR8; assay: cell-based or functional assay; remark: listed apart in the source
loop1 hCCR4-hCCR8 [5] = target: T7, loop1 hCCR4-hCCR8; assay: flow cytometry on Expi293 transfectants
human CCR8 [6] = target: T5, human CCR8; assay: cell-based or functional assay; remark: listed apart in the source
human CCR8 [7] = target: T5, human CCR8; assay: cell-based or functional assay; remark: listed apart in the source
human CCR8 [8] = target: T5, human CCR8; assay: cell-based or functional assay; remark: listed apart in the source

Binder | binding result (N-ter hCCR4-hCCR8) | binding result (mouse CCR8) | binding result (human CCR4) | binding result (hCCR8 (Y17A)) | Neutralizing activity IC50 (nM), Ca2+ influx by 100 nM hCCL1 (human CCR8 [1]) [nM] | binding result (loop3 hCCR4-hCCR8) | binding result (loop1 hCCR4-hCCR8 [2]) | binding result (loop2 hCCR4-hCCR8) | binding result (hCCR8 (K35A)) | IC50 (nM), Ca2+ influx by 200 nM hCCL1 (human CCR8 [3]) [nM] | IC50 (nM), Ca2+ influx by 200 nM hCCL1 (human CCR8 [4]) [nM] | binding result (loop1 hCCR4-hCCR8 [5]) | IC50 ratio (WT IC50/mutant IC50) (human CCR8 [6]) [ratio] | IC50 ratio (WT IC50/mutant IC50) (human CCR8 [7]) [ratio] | IC50 (nM), Ca2+ influx by 200 nM hCCL1 (human CCR8 [8]) [nM]
27G1 (antibody, V domains shown, mouse hybridoma antibody, purified) VH: EVQLVESGGRLVQPKGSLKLSCAASGFAFNTYAMYWIRQAPGKGLEWVARIRSKSNNYATYYADSVKDRFTISRDDSQSMLYLQMNNLKTEDTAMYYCVRARFYYSDYGYAMDYWGQGTSVTVSS VL: DIVMTQAAPSVPVTPGESVSISCRSSKSLLHSNGNTYLYWFLQRPGQSPQLLIYRMSNLASGVPDRFSGSGSGTAFTLRISRVEAEDVGVYYCMQHLEYPLTFGAGTKLELKR | no binding | no binding | no binding | no binding | 0.09 | binds | binds | binds | – | – | – | – | – | – | –
1H4 (antibody, V domains shown, mouse hybridoma antibody, purified) VH: EVQLVESGGRLVQPKGSLKLSCAASGFTFNTYAMYWIRQAPGKGLEWVARIRSKSNNYATYYADSVKDRFTISRDDSQSMLYLQMNNLKTEDTAMYYCVRARFYYSDYGYAMDYWGQGTSVTVSS VL: DIVMTQAAPSVPVTPGESVSISCRSSKSLLHSNGNTYLYWFLQRPGQSPQLLIYRMSNLASGVPDRFSASGSGTAFTLRISRVEAEDVGVYYCMQHLEYPLTFGAGTKLELKR | no binding | no binding | no binding | no binding | 0.32 | binds | binds | binds | no binding | 0.36 | – | – | – | – | –
10A11 (antibody, V domains shown, mouse hybridoma antibody, purified; also called m10A11) VH: EVQLVESGGRLVQPKGSLKLSCAASGFAFNTYALYWIRQAPGKGLEWVARIRSKSNNYATYYADSVKDRFTISRDDSQSMLYLQMNNLKTEDTAMYYCVRARFYYSDYGYAMDYWGQGTSVTVSS VL: DIVMTQAAPSVPVTPGESVSISCRSSKSLLHSNGNTYLYWFLQRPGQSPQLLIYRMSNLASGVPDRFSGSGSGTAFTLRISRVEAEDVGVYYCMQHLEYPLTFGAGTKLELKR | no binding | no binding | no binding | no binding | 0.08 | binds | binds | binds | – | 0.23 | 0.23 | – | – | – | –
8F7 (antibody, V domains shown, mouse hybridoma antibody, purified) VH: EVQLVESGGRLVQPKRSLKLSCAASGFTFNPYAMYWIRQAPGQGLEWVARIRSKSNNYATYYADSVKDRFTISRDDSQSMLYLQMNNLKTEDTAMYYCVRGHQGTMDYWGQGTSVTVSS VL: DIVMTQAAPSVPVTPGESVSISCRSSKSLLHSNGNTYLYWFLQRPGQSPQLLTYRMSNLASGVPDRFSGSGSGTAFTLRISRVEAEDVGVYYCMQHLEYPFTFGGGTKLEIKR | no binding | no binding | no binding | no binding | 1.56 | binds | – | binds | – | 3.03 | – | no binding | – | – | –
2C7 (antibody, V domains shown, mouse hybridoma antibody, purified) VH: QVQLKQSGPSLVQPSQSLSITCTVSGFSLTAYGVHWIRQSPGKGQEWLGVIWRGGSTDYNAAFMSRLTITKDNSKSQVFFKMNSLQADDTAIYYCAKKGGSYAMDYWGQGTSVTVSS VL: DVVLTQTPLSLPVSLGGQASISCRSSQSLVHSNGNTYLHWYLQKPGQSPKLLIYKVSNRFSGVPDRFSGSGSGTDFTLKISRVEAEDLGVYFCSQSTQVPLTFGAGTKLELKR | no binding | no binding | no binding | no binding | 0.4 | binds | – | binds | – | 1.19 | – | no binding | – | – | –
h10A11 (IGKV4-1/IGHV3-15 T94R) (antibody, V domains shown) VH: EVQLVESGGALVKPGGSLRLSCAASGFTFSTYALYWVRQAPGKGLEWVGRIRSKSNNYATYYADSVKDRFTISRDDSKNTLYLQMNSLKTEDTAVYYCTRARFYYSDYGYAMDYWGQGTLVTVSS VL: DIVMTQSPDSLAVSLGERATINCRSSKSLLHSNGNTYLYWYQQKPGQPPKLLIYRMSNLASGVPDRFSGSGSGTDFTLTISSLQAEDVAVYYCMQHLEYPLTFGQGTKLEIKR | – | – | – | – | – | – | – | – | – | – | 0.15 | – | 1 | – | –
h10A11 (IGKV4-1/IGHV3-73) (antibody, V domains shown) VH: EVQLVESGGGLVQPGGSLKLSCAASGFAFNTYALYWVRQASGKGLEWVGRIRSKSNNYATYYADSVKDRFTISRDDSKNTAYLQMNSLKTEDTAVYYCTRARFYYSDYGYAMDYWGQGTLVTVSS VL: DIVMTQSPDSLAVSLGERATINCRSSKSLLHSNGNTYLYWYQQKPGQPPKLLIYRMSNLASGVPDRFSGSGSGTDFTLTISSLQAEDVAVYYCMQHLEYPLTFGQGTKLEIKR | – | – | – | – | – | – | – | – | – | – | 0.17 | – | – | 1 | –
h19D7 (IGKV2-18/IGHV3-73) (antibody, V domains shown) VH: EVQLVESGGGLVQPGGSLKLSCAASGFTFSTYAMYWVRQASGKGLEWVGRIRSKSNNYATYYADSVKDRFTISRDDSKNTAYLQMNSLKTEDTAVYYCTRGGYGNYRYAMDYWGQGTTVTVSS VL: DIVMTQTPPSLPVNPGEPASISCRSSKSLLHSNGNTYLYWYLQKPGQSPQLLIYRVSNLASGVPDRFSGSGSGSDFTLKISWVEAEDVGVYYCMQHLEYPFTFGQGTKLEIK | – | – | – | – | – | – | – | – | – | – | – | – | – | – | 0.46
